The values below come from paper PMC8592984, “Tau activates microglia via the PQBP1-cGAS-STING pathway to promote brain inflammation” (Nature Communications, 2021).

The labels stand for the following.
B1: Tau(198–243) of Tau 410 (domain or fragment, human, UniProt P10636-5 198-243, looked up)
chain: SSPGSPGTPGSRSRTPSLPTPPTREPKKVAVVRTPPKSPSSAKSRL
notes: human tau, splice form Tau 410, residues 198-243; numbers count on: Tau 410; pOPHLT-s has a TEV protease cleavage site after the His-tag and lipoyl domain; Isotope-labelled (15N); also called proline-rich region
B2: human PQBP1 full-length form (PQBP1-FL) (natural protein, UniProt O60828 1-265, looked up)
chain: MPLPVALQTRLAKRGILKHLEPEPEEEIIAEDYDDDPVDYEATRLEGLPPSWYKVFDPSCGLPYYWNADTDLVSWLSPHDPNSVVTKSAKKLRSSNADAEEKLDRSHDKSDRGHDKSDRSHEKLDRGHDKSDRGHDKSDRDRERGYDKVDRERERDRERDRDRGYDKADREEGKERRHHRREELAPYPKSKKAVSRKDEELDPMDPSSYSDAPRGTWSTGLPKRNEAKTGADTTAAGPLFQQRPYPSPGAVLRANAEASRTKQQD
notes: also called full-length PQBP1
B3: Tau(151–197) of Tau 410 (domain or fragment, human, UniProt P10636-5 151-197, looked up)
chain: IATPRGAAPPGQKGQANATRIPAKTPPAPKTPPSSGEPPKSGDRSGY
notes: numbers count on: Tau 410; pOPHLT-s has a TEV protease cleavage site after the His-tag and lipoyl domain; Isotope-labelled (15N); also called proline-rich region
B4: human PQBP1(1–94) including WWD (domain or fragment, UniProt O60828 1-94, looked up)
chain: MPLPVALQTRLAKRGILKHLEPEPEEEIIAEDYDDDPVDYEATRLEGLPPSWYKVFDPSCGLPYYWNADTDLVSWLSPHDPNSVVTKSAKKLRS
notes: human PQBP1, residues 1-94, including the WW domain (WWD); Used in SPR and in NMR; also called WWD of PQBP1; PQBP1-WWD

Settings in all cases: both partners purified
Experiment [1] concerns the target B4. Nature of the experiment: NMR titration; 1H-15N HSQC of labelled tau fragments without and with PQBP1(1–94), molar ratio Tau:PQBP1(1–94) 1:5; 0.1–0.5 mM tau, 20 mM sodium phosphate pH 7.0, 20 mM NaCl, 1 mM dithiothreitol, 283 K.
In a further experiment the target is T1, Tau 441 P301S (human, UniProt P10636-8 1-441, P301S).
T1 construct: also called Tau P301S; FTLD-linked disease mutant of tau; source: bought: Signal Chem (T08-56GN)
T1 sequence (P10636 other isoform, or with tags, fused parts or gaps P301S | P301S | P301S P301S): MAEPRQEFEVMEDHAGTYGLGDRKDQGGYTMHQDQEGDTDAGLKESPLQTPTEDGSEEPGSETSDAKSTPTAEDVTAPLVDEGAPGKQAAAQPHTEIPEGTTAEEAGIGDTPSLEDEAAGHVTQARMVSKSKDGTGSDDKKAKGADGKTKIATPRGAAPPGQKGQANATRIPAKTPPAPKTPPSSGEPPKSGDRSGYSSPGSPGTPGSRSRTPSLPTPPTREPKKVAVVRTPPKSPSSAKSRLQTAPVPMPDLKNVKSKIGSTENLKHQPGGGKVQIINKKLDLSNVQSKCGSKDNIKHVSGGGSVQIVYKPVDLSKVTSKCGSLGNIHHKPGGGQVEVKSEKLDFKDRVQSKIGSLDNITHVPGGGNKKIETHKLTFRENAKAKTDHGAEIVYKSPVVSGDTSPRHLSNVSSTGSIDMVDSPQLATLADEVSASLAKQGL
Nature of the experiment: SPR; Tau proteins immobilised on CM5 sensor chips at 1200 RU; PQBP1 constructs loaded at multiple doses for 120 s; equilibrium response; BIAcore J, 25 °C; 10 mM Tris-HCl pH 8.5, 150 mM NaCl, 3 mM EDTA, 0.005% Tween-20. (SPR reads the build-up and loss of mass on a sensor chip optically.)

Experiment [2] concerns the target T2, human Tau 410 full-length protein (3R tau), SPR construct (human, UniProt P10636-5 1-410).
T2 construct: human tau, splice form Tau 410 (a representative 3R tau), 410 residues; numbers count on: Tau 410; source: E. coli Rosetta(DE3)pLysS, purified (Ni-NTA agarose); not shown: His-tag, N-terminal, kept
The experiment is described as above.

Another experiment deals with T3, Tau 410 P216A (human, UniProt P10636-5 1-410, P216A).
T3 construct: human tau, splice form Tau 410, 410 residues, with P216A; numbers count on: Tau 410; also called Tau P216A; source: E. coli Rosetta(DE3)pLysS, purified (Ni-NTA agarose); not shown: His-tag, N-terminal, kept
T3 sequence (P10636 other isoform, or with tags, fused parts or gaps P216A | P216A | P216A P216A): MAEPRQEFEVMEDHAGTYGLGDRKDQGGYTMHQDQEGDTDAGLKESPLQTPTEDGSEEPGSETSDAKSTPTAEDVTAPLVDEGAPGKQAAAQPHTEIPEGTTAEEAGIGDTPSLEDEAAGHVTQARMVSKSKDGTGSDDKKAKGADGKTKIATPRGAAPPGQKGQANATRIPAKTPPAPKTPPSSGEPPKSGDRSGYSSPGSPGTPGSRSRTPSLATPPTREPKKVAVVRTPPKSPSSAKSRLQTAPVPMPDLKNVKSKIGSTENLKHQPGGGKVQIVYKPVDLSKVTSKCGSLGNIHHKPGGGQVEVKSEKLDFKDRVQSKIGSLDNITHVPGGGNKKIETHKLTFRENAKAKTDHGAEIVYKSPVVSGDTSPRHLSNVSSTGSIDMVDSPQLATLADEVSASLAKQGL
The experiment is described as above.

A further experiment has as its target T4, Tau 410 P179A (human, UniProt P10636-5 1-410, P179A).
T4 construct: human tau, splice form Tau 410, 410 residues, with P179A; numbers count on: Tau 410; also called Tau P179A; source: E. coli Rosetta(DE3)pLysS, purified (Ni-NTA agarose); not shown: His-tag, N-terminal, kept
The description is as above.

The target of experiment [3] is T5, human Tau 441 full-length protein (4R tau), SPR construct (human, UniProt P10636-8 1-441).
T5 construct: source: E. coli Rosetta(DE3)pLysS, purified (Ni-NTA agarose); not shown: His-tag, N-terminal, kept
T5 sequence (P10636 other isoform, or with tags, fused parts or gaps): as the sequence (P10636 other isoform, or with tags, fused parts or gaps P301S | P301S | P301S P301S) above, with S301P counted along it
The description is as above.

For another experiment, the target named is T6, Tau(244–341) of Tau 410 (human, UniProt P10636-5 244-341).
T6 construct: human tau, splice form Tau 410, residues 244-341 (repeat region); numbers count on: Tau 410; Isotope-labelled (15N); also called the repeat region
T6 sequence (P10636 other isoform, or with tags, fused parts or gaps): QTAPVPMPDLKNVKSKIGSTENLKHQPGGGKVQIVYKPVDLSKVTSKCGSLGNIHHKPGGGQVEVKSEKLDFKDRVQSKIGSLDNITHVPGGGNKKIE
Nature of the experiment: NMR titration; 1H-15N HSQC of labelled tau fragments without and with PQBP1(1–94), molar ratio Tau:PQBP1(1–94) 1:5; 0.1–0.5 mM tau, 20 mM sodium phosphate pH 7.0, 20 mM NaCl, 1 mM dithiothreitol, 283 K.

T2 sequence (P10636 other isoform, or with tags, fused parts or gaps): as the sequence (P10636 other isoform, or with tags, fused parts or gaps P216A | P216A | P216A P216A) above, with A216P counted along it
T4 sequence (P10636 other isoform, or with tags, fused parts or gaps P179A | P179A | P179A P179A): as the sequence (P10636 other isoform, or with tags, fused parts or gaps P216A | P216A | P216A P216A) above, with P179A, A216P counted along it

Regarding B1, in experiment [1], the binding result is “binds”.
Consider B2, for which the binding result (with Tau 441 P301S; in experiment [2]; with Tau 410 P216A; with Tau 410 P179A; in experiment [3]) was “binds” each time.
In the case of B3, the binding result in experiment [1] is reported as “binds”.
As for B4, the binding result (in experiment [2]; in experiment [3]; in the experiment with Tau(244–341) of Tau 410) was “binds” throughout.
